Where only a bound is given, the exact number is not on record here.

In this test the target is normal human IgG (Zymed) (human). The test can be described thus: ELISA, 8A3 coated on plate, anti-human IgG Fc-HRP detection. A general note: An ELISA detects its analyte on a solid surface through an enzyme-linked reagent.

B1: anti-idiotypic antibody 8A3 (antibody, V domains shown)
VH: QVQLQQSGAELAKPGASVKMSCKASGYNFTTYWMHWVKQRPGQGLEWIGYINPSTDYTEYNQKFKYKATLTADKSSSTAYIQLSSLTSEDSAVYYCARWWDYDWYFDVWGAGTPLTVSS
VL: DIVMTQSQEFMSTSVGDRVSVTCKASQTVDTNVAWYQQKLGQSPKPLIYSASYRCSGVPDRFTGSGSRTDFTLTITNVQSEDLAEYFCQQYHSFPWTFGGGTKVEIKR
In turn, B1 yielded a fold (binding to normal human IgG against humanized anti-CD20 IgG) of under 50000 fold.

Values taken from patent US20070015228A1.
